The results in this text go back to the supplement of paper PMC9112550, “Optimization of the antimicrobial peptide Bac7 by deep mutational scanning” (BMC Biology, 2022).
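Further: peptides expressed intracellularly from a pBAD plasmid library in pooled LB shake-flask culture, induced with 0.3% L-arabinose, DNA abundance read by NGS, three biological replicates, DESeq2 with apeglm shrinkage.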

The subject of the series is Escherichia coli TOP10. Nature of the series: shrunken log2 fold change of peptide-encoding DNA abundance (4.5 h post-induction vs induction); higher = less antimicrobial activity (less host growth inhibition). To be noted: time post-induction: 4.5 h; library: site-saturation at positions 5, 18, 19, 20.
Consider RRIRERPPRLPRPRPRPAWWPRP, for which the “shrunken log2 fold change” value stood at 0.00222.

For RRIRFRPPRLPRPRPRPDFKPRP, the “shrunken log2 fold change” value was -0.296. Regarding RRIRIRPPRLPRPRPRPVQKPRP, the “shrunken log2 fold change” value is 0.0154. Take RRIRMRPPRLPRPRPRPKMDPRP: the “shrunken log2 fold change” value was 1.2. The value for RRIRSRPPRLPRPRPRPRFMPRP was -0.211. The figure for RRIRIRPPRLPRPRPRPRWDPRP is -0.12; for RRIRRRPPRLPRPRPRPWAVPRP it is -0.00967. Regarding RRIRDRPPRLPRPRPRPNVWPRP, the “shrunken log2 fold change” value was 0.234. The figure for RRIRHRPPRLPRPRPRPLEDPRP is 0.0039; for RRIRQRPPRLPRPRPRPPCDPRP it is -0.0587. The figure for RRIRERPPRLPRPRPRPCNAPRP is -0.0483; for RRIRDRPPRLPRPRPRPKVHPRP it is -0.216. In the case of RRIRDRPPRLPRPRPRPTTRPRP, the “shrunken log2 fold change” value amounted to 0.542. With RRIRWRPPRLPRPRPRPRAFPRP, the “shrunken log2 fold change” value was 0.57. With RRIRMRPPRLPRPRPRPLFAPRP, the “shrunken log2 fold change” value amounted to 0.556. The value for RRIRYRPPRLPRPRPRPKIEPRP was -0.00459; that for RRIRYRPPRLPRPRPRPIWFPRP was -0.269. Consider RRIRARPPRLPRPRPRPPPQPRP, for which the “shrunken log2 fold change” value was found to be 1.31. The figure for RRIRFRPPRLPRPRPRPETFPRP is -0.0396; for RRIRSRPPRLPRPRPRPMACPRP it is -0.342; for RRIRQRPPRLPRPRPRPKAEPRP it is 0.45. On to RRIRLRPPRLPRPRPRPIDPPRP, for which the “shrunken log2 fold change” value is -0.379. In the case of RRIRWRPPRLPRPRPRPGIYPRP, the “shrunken log2 fold change” value is -0.137. The figure for RRIRTRPPRLPRPRPRPHTEPRP is -0.215; for RRIRCRPPRLPRPRPRPEIKPRP it is 0.0171. The figure for RRIRRRPPRLPRPRPRPSHAPRP is 0.232; for RRIRIRPPRLPRPRPRPMNMPRP it is -0.375.

Take RRIRHRPPRLPRPRPRPLQVPRP: the “shrunken log2 fold change” value was -0.28. On to RRIRYRPPRLPRPRPRPYVMPRP, for which the “shrunken log2 fold change” value is -1.04.

For the sequence RRIRIRPPRLPRPRPRPIMMPRP, the “shrunken log2 fold change” value was -0.132.

As to RRIRPRPPRLPRPRPRPTNGPRP, the “shrunken log2 fold change” value came to 0.191. The value for RRIRKRPPRLPRPRPRPPRDPRP was 1.01; that for RRIRCRPPRLPRPRPRPRKDPRP was -0.0271; that for RRIRQRPPRLPRPRPRPSACPRP was 0.42. The value for RRIRRRPPRLPRPRPRPYLRPRP was 0.0234. The value for RRIRMRPPRLPRPRPRPMDEPRP was 2.34; that for RRIRVRPPRLPRPRPRPQALPRP was -0.000718; that for RRIRIRPPRLPRPRPRPHDAPRP was -0.175. RRIRVRPPRLPRPRPRPYACPRP: the “shrunken log2 fold change” value was determined as 0.0114.

With RRIRARPPRLPRPRPRPVFMPRP, the “shrunken log2 fold change” value is 0.0722. The value for RRIRLRPPRLPRPRPRPKGIPRP was -0.0776. The figure for RRIRNRPPRLPRPRPRPEVEPRP is 0.154; for RRIRQRPPRLPRPRPRPHITPRP it is -1.1. For the sequence RRIRHRPPRLPRPRPRPKDHPRP, the “shrunken log2 fold change” value was -0.274. Take RRIRPRPPRLPRPRPRPSMRPRP: the “shrunken log2 fold change” value turned out to be 0.501.

Consider RRIRKRPPRLPRPRPRPPYPPRP, for which the “shrunken log2 fold change” value was 0.0247. Take RRIRGRPPRLPRPRPRPKLRPRP: the “shrunken log2 fold change” value is 0.675.

In the case of RRIRCRPPRLPRPRPRPWHNPRP, the “shrunken log2 fold change” value was -0.244. For the sequence RRIRKRPPRLPRPRPRPSIAPRP, the “shrunken log2 fold change” value is 0.00111. In the case of RRIRERPPRLPRPRPRPCTIPRP, the “shrunken log2 fold change” value was -0.487.

For RRIRKRPPRLPRPRPRPVYEPRP, the “shrunken log2 fold change” value is -0.115. The figure for RRIRRRPPRLPRPRPRPRDWPRP is 1.01; for RRIRYRPPRLPRPRPRPQQPPRP it is 0.0699; for RRIRPRPPRLPRPRPRPSLWPRP it is 0.471. Take RRIRHRPPRLPRPRPRPDIQPRP: the “shrunken log2 fold change” value was -0.0379.

With RRIRLRPPRLPRPRPRPPAQPRP, the “shrunken log2 fold change” value worked out at 0.888.

With RRIRLRPPRLPRPRPRPIHHPRP, the “shrunken log2 fold change” value was -0.246. On to RRIRQRPPRLPRPRPRPWGHPRP, for which the “shrunken log2 fold change” value is -0.0609. For the sequence RRIRHRPPRLPRPRPRPPRWPRP, the “shrunken log2 fold change” value came out at 0.137. The value for RRIRTRPPRLPRPRPRPLAVPRP was -0.0185. As for RRIRGRPPRLPRPRPRPFLAPRP, the “shrunken log2 fold change” value amounted to 0.525. In the case of RRIRVRPPRLPRPRPRPSHIPRP, the “shrunken log2 fold change” value is -0.706. The value for RRIRARPPRLPRPRPRPENYPRP was 0.0453; that for RRIRHRPPRLPRPRPRPFSEPRP was -0.591. The figure for RRIRHRPPRLPRPRPRPQYPPRP is -0.161; for RRIRHRPPRLPRPRPRPNEQPRP it is -0.0176; for RRIRWRPPRLPRPRPRPNISPRP it is -0.279.

On to RRIRRRPPRLPRPRPRPYSSPRP, for which the “shrunken log2 fold change” value is -0.0612. In the case of RRIRNRPPRLPRPRPRPWYAPRP, the “shrunken log2 fold change” value is -0.533.

As for RRIRYRPPRLPRPRPRPLDLPRP, the “shrunken log2 fold change” value is -0.0215. For RRIRIRPPRLPRPRPRPCAQPRP, the “shrunken log2 fold change” value was -0.485. The figure for RRIRRRPPRLPRPRPRPSANPRP is 0.326.

For the sequence RRIRGRPPRLPRPRPRPSFVPRP, the “shrunken log2 fold change” value was 0.0328. RRIRRRPPRLPRPRPRPHNVPRP: the “shrunken log2 fold change” value is -0.916. As to RRIRSRPPRLPRPRPRPRSQPRP, the “shrunken log2 fold change” value came out at 0.169. The figure for RRIRVRPPRLPRPRPRPMHYPRP is -0.266; for RRIRRRPPRLPRPRPRPYFKPRP it is -0.572. For RRIRMRPPRLPRPRPRPYAPPRP, the “shrunken log2 fold change” value was -0.24.

On to RRIRYRPPRLPRPRPRPNQFPRP, for which the “shrunken log2 fold change” value was -0.533.

For the sequence RRIRQRPPRLPRPRPRPGDKPRP, the “shrunken log2 fold change” value was -0.187. The figure for RRIRPRPPRLPRPRPRPFHMPRP is -0.301; for RRIRHRPPRLPRPRPRPKRGPRP it is 0.0662. The value for RRIRLRPPRLPRPRPRPERRPRP was -0.0189; that for RRIRERPPRLPRPRPRPTPRPRP was 0.669; that for RRIRMRPPRLPRPRPRPCFNPRP was -0.000544. The figure for RRIRARPPRLPRPRPRPAMKPRP is 0.0417; for RRIRMRPPRLPRPRPRPFVAPRP it is 0.113; for RRIRARPPRLPRPRPRPQNMPRP it is -0.497. On to RRIRRRPPRLPRPRPRPFVKPRP, for which the “shrunken log2 fold change” value is -0.373. With RRIRQRPPRLPRPRPRPCRAPRP, the “shrunken log2 fold change” value came out at 0.106. Consider RRIRQRPPRLPRPRPRPFIWPRP, for which the “shrunken log2 fold change” value was -0.357. RRIRCRPPRLPRPRPRPRYYPRP: the “shrunken log2 fold change” value is -0.612. The value for RRIRARPPRLPRPRPRPSCHPRP was -0.138; that for RRIRARPPRLPRPRPRPAMRPRP was 0.825; that for RRIRTRPPRLPRPRPRPTNGPRP was -0.0801.

With RRIRQRPPRLPRPRPRPPTWPRP, the “shrunken log2 fold change” value is -0.0557. As to RRIRRRPPRLPRPRPRPKWLPRP, the “shrunken log2 fold change” value was 0.269.

As for RRIRYRPPRLPRPRPRPGAPPRP, the “shrunken log2 fold change” value came out at 0.312. The value for RRIRHRPPRLPRPRPRPEKPPRP was -0.01. The figure for RRIRFRPPRLPRPRPRPNATPRP is 0.0167; for RRIRHRPPRLPRPRPRPYLNPRP it is -1.2. The value for RRIRFRPPRLPRPRPRPIVQPRP was 0.00873; that for RRIRVRPPRLPRPRPRPTQSPRP was 0.332.

Consider RRIRARPPRLPRPRPRPEGSPRP, for which the “shrunken log2 fold change” value came out at 0.805.

With RRIRMRPPRLPRPRPRPSQHPRP, the “shrunken log2 fold change” value worked out at 0.136.

As to RRIRHRPPRLPRPRPRPYLFPRP, the “shrunken log2 fold change” value was -0.523.

Turning to RRIRRRPPRLPRPRPRPIGNPRP, the “shrunken log2 fold change” value amounted to 0.0912. The value for RRIRMRPPRLPRPRPRPHWMPRP was -0.137; that for RRIRRRPPRLPRPRPRPRQWPRP was 0.169; that for RRIRKRPPRLPRPRPRPTMEPRP was 0.204. The figure for RRIRYRPPRLPRPRPRPVCTPRP is -0.569. Consider RRIRCRPPRLPRPRPRPTYQPRP, for which the “shrunken log2 fold change” value is -0.346.

For RRIRDRPPRLPRPRPRPYHLPRP, the “shrunken log2 fold change” value is -0.0628. The value for RRIRTRPPRLPRPRPRPALDPRP was 0.196; that for RRIRTRPPRLPRPRPRPYFGPRP was -0.589. The value for RRIRWRPPRLPRPRPRPDYRPRP was -0.0424; that for RRIRFRPPRLPRPRPRPPNVPRP was 0.0696. For the sequence RRIRPRPPRLPRPRPRPSYMPRP, the “shrunken log2 fold change” value was -0.962.

In the case of RRIRRRPPRLPRPRPRPSVLPRP, the “shrunken log2 fold change” value is -0.0526.

For the sequence RRIRARPPRLPRPRPRPGSQPRP, the “shrunken log2 fold change” value amounted to 0.368. For RRIRVRPPRLPRPRPRPDFLPRP, the “shrunken log2 fold change” value was -0.189.

For the sequence RRIRSRPPRLPRPRPRPRFSPRP, the “shrunken log2 fold change” value was found to be 0.44.

Regarding RRIRQRPPRLPRPRPRPKGGPRP, the “shrunken log2 fold change” value worked out at 0.0347.

In the case of RRIRNRPPRLPRPRPRPLEVPRP, the “shrunken log2 fold change” value is -0.118. The value for RRIRCRPPRLPRPRPRPVWRPRP was 0.358.
